Assay results as given in the supplement of paper PMC9112550, “Optimization of the antimicrobial peptide Bac7 by deep mutational scanning” (BMC Biology, 2022).

Test system: Escherichia coli TOP10
Assay: shrunken log2 fold change of peptide-encoding DNA abundance (4.5 h post-induction vs induction); higher = less antimicrobial activity (less host growth inhibition)
Settings: time post-induction: 4.5 h; library: site-saturation at positions 5, 18, 19, 20
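Further: peptides expressed intracellularly from a pBAD plasmid library in pooled LB shake-flask culture, induced with 0.3% L-arabinose, DNA abundance read by NGS, three biological replicates, DESeq2 with apeglm shrinkage.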

| Sequence | shrunken log2 fold change |
| --- | --- |
| RRIRTRPPRLPRPRPRPPTEPRP | 0.498 |
| RRIRERPPRLPRPRPRPQVPPRP | -0.103 |
| RRIRTRPPRLPRPRPRPSDDPRP | -0.182 |
| RRIRKRPPRLPRPRPRPYPEPRP | -0.0874 |
| RRIRLRPPRLPRPRPRPSIAPRP | -0.217 |
| RRIRERPPRLPRPRPRPIWYPRP | 0.0381 |
| RRIRTRPPRLPRPRPRPHITPRP | -0.625 |
| RRIRVRPPRLPRPRPRPHRGPRP | -0.0736 |
| RRIRDRPPRLPRPRPRPHSAPRP | 0.0279 |
| RRIRMRPPRLPRPRPRPPTVPRP | 0.593 |
| RRIRVRPPRLPRPRPRPIYAPRP | -0.0133 |
| RRIRWRPPRLPRPRPRPIELPRP | -0.0796 |
| RRIRNRPPRLPRPRPRPDNYPRP | -0.341 |
| RRIRIRPPRLPRPRPRPTEYPRP | -0.251 |
| RRIRMRPPRLPRPRPRPFHLPRP | -0.0432 |
| RRIRYRPPRLPRPRPRPACNPRP | -0.238 |
| RRIRNRPPRLPRPRPRPGMEPRP | -0.0302 |
| RRIRKRPPRLPRPRPRPRMMPRP | 0.492 |
| RRIRMRPPRLPRPRPRPNCAPRP | 0.317 |
| RRIRRRPPRLPRPRPRPMHDPRP | 0.117 |
| RRIRYRPPRLPRPRPRPHCLPRP | -0.0757 |
| RRIRERPPRLPRPRPRPVPFPRP | -0.229 |
| RRIRIRPPRLPRPRPRPHMGPRP | -1.08 |
| RRIRCRPPRLPRPRPRPWEAPRP | 0.0139 |
| RRIRTRPPRLPRPRPRPQDAPRP | -0.0107 |

| Sequence | shrunken log2 fold change |
| --- | --- |
| RRIRWRPPRLPRPRPRPCPVPRP | -0.249 |
| RRIRDRPPRLPRPRPRPVQRPRP | 0.121 |
| RRIRSRPPRLPRPRPRPGQMPRP | 0.206 |
| RRIRDRPPRLPRPRPRPIWQPRP | 0.211 |
| RRIRQRPPRLPRPRPRPGSHPRP | -0.108 |
| RRIRIRPPRLPRPRPRPHYDPRP | -0.801 |
| RRIRNRPPRLPRPRPRPKPAPRP | 0.601 |
| RRIRPRPPRLPRPRPRPRVHPRP | -0.0821 |
| RRIRPRPPRLPRPRPRPFVYPRP | -0.706 |
| RRIRTRPPRLPRPRPRPCHAPRP | -0.0567 |
| RRIRMRPPRLPRPRPRPSLWPRP | 1.72 |
| RRIRYRPPRLPRPRPRPGFCPRP | -0.266 |
| RRIRCRPPRLPRPRPRPQSMPRP | -0.419 |
| RRIRQRPPRLPRPRPRPTKNPRP | 0.0334 |
| RRIRHRPPRLPRPRPRPKRQPRP | -0.0409 |
| RRIRWRPPRLPRPRPRPVQEPRP | 0.342 |
| RRIRPRPPRLPRPRPRPYWDPRP | -0.376 |
| RRIRLRPPRLPRPRPRPEWGPRP | 0.504 |
| RRIRTRPPRLPRPRPRPRATPRP | 0.299 |
| RRIRFRPPRLPRPRPRPLAAPRP | 0.315 |
| RRIRDRPPRLPRPRPRPYCYPRP | -0.125 |
| RRIRDRPPRLPRPRPRPDHPPRP | -0.76 |
| RRIRQRPPRLPRPRPRPAIWPRP | -0.143 |
| RRIRERPPRLPRPRPRPSMKPRP | -0.607 |
| RRIRFRPPRLPRPRPRPRHPPRP | 0.0568 |

| Sequence | shrunken log2 fold change |
| --- | --- |
| RRIRCRPPRLPRPRPRPNIQPRP | -0.584 |
| RRIRPRPPRLPRPRPRPITSPRP | -0.354 |
| RRIRCRPPRLPRPRPRPTWYPRP | -0.28 |
| RRIRCRPPRLPRPRPRPCFGPRP | -0.137 |
| RRIRQRPPRLPRPRPRPCLTPRP | 0.0158 |
| RRIRDRPPRLPRPRPRPSCYPRP | -0.302 |
| RRIRMRPPRLPRPRPRPSNMPRP | -0.0931 |
| RRIRYRPPRLPRPRPRPIKSPRP | -0.616 |
| RRIRTRPPRLPRPRPRPDAAPRP | 0.424 |
| RRIRVRPPRLPRPRPRPHPQPRP | -0.0987 |
| RRIRWRPPRLPRPRPRPMGCPRP | 0.117 |
| RRIRNRPPRLPRPRPRPKMDPRP | 0.0178 |
| RRIRKRPPRLPRPRPRPDFHPRP | -0.312 |
| RRIRSRPPRLPRPRPRPYCMPRP | -0.881 |
| RRIRGRPPRLPRPRPRPNILPRP | 0.199 |
| RRIRCRPPRLPRPRPRPGPHPRP | 0.0758 |
| RRIRDRPPRLPRPRPRPKFIPRP | -0.14 |
| RRIRDRPPRLPRPRPRPYLKPRP | -0.443 |
| RRIRGRPPRLPRPRPRPQRLPRP | 0.329 |
| RRIRNRPPRLPRPRPRPRPCPRP | 0.0913 |
| RRIRMRPPRLPRPRPRPHLVPRP | -0.0163 |
| RRIRKRPPRLPRPRPRPWGCPRP | 0.131 |
| RRIRSRPPRLPRPRPRPHCCPRP | 0.022 |
| RRIRGRPPRLPRPRPRPTFQPRP | 0.59 |
| RRIRARPPRLPRPRPRPWHAPRP | 0.288 |

| Sequence | shrunken log2 fold change |
| --- | --- |
| RRIRDRPPRLPRPRPRPSRWPRP | 0.0623 |
| RRIRSRPPRLPRPRPRPYVPPRP | -0.784 |
| RRIRLRPPRLPRPRPRPMAPPRP | 0.19 |
| RRIRERPPRLPRPRPRPFNPPRP | -0.442 |
| RRIRARPPRLPRPRPRPNPTPRP | 1.11 |
| RRIRMRPPRLPRPRPRPEMLPRP | 3.45 |
| RRIRGRPPRLPRPRPRPMMMPRP | 0.574 |
| RRIRLRPPRLPRPRPRPEGPPRP | 0.539 |
| RRIRKRPPRLPRPRPRPRTVPRP | 0.244 |
| RRIRPRPPRLPRPRPRPGDYPRP | -0.0215 |
| RRIRQRPPRLPRPRPRPKNSPRP | -0.536 |
| RRIRTRPPRLPRPRPRPNRFPRP | -0.00879 |
| RRIRIRPPRLPRPRPRPCIGPRP | -0.632 |
| RRIRDRPPRLPRPRPRPEYIPRP | -0.0149 |
| RRIRWRPPRLPRPRPRPDNTPRP | -0.25 |
| RRIRYRPPRLPRPRPRPPNCPRP | -0.236 |
| RRIRIRPPRLPRPRPRPAQSPRP | 0.227 |
| RRIRNRPPRLPRPRPRPVWNPRP | -0.0723 |
| RRIRWRPPRLPRPRPRPWEEPRP | 0.0688 |
| RRIRKRPPRLPRPRPRPQWGPRP | 0.227 |
| RRIRNRPPRLPRPRPRPCDWPRP | -0.0698 |
| RRIRPRPPRLPRPRPRPRLKPRP | 0.344 |
| RRIRKRPPRLPRPRPRPDDPPRP | 0.237 |
| RRIRHRPPRLPRPRPRPRYNPRP | -0.591 |
| RRIRWRPPRLPRPRPRPDQRPRP | 0.098 |

| Sequence | shrunken log2 fold change |
| --- | --- |
| RRIRNRPPRLPRPRPRPPEAPRP | 0.0101 |
| RRIRTRPPRLPRPRPRPISVPRP | -0.0512 |
| RRIRSRPPRLPRPRPRPLWHPRP | -0.289 |
| RRIRDRPPRLPRPRPRPVAIPRP | 0.711 |
| RRIRNRPPRLPRPRPRPLCPPRP | -0.141 |
| RRIRWRPPRLPRPRPRPVVSPRP | 0.0155 |
| RRIRFRPPRLPRPRPRPIIIPRP | -0.579 |
| RRIRPRPPRLPRPRPRPFDQPRP | -0.295 |
| RRIRRRPPRLPRPRPRPPFLPRP | 0.315 |
| RRIRARPPRLPRPRPRPDGLPRP | 0.292 |
| RRIRTRPPRLPRPRPRPEWHPRP | 0.0594 |
| RRIRMRPPRLPRPRPRPGHTPRP | 0.488 |
| RRIRGRPPRLPRPRPRPVRKPRP | 1.72 |
| RRIRFRPPRLPRPRPRPDRGPRP | 0.0145 |
| RRIRNRPPRLPRPRPRPGYWPRP | 0.168 |
| RRIRCRPPRLPRPRPRPGFQPRP | -0.356 |
| RRIRERPPRLPRPRPRPFITPRP | -0.314 |
| RRIRERPPRLPRPRPRPIIGPRP | -0.249 |
| RRIRGRPPRLPRPRPRPCVPPRP | 0.307 |
| RRIRFRPPRLPRPRPRPLHKPRP | -0.179 |
| RRIRVRPPRLPRPRPRPRMPPRP | 0.278 |
| RRIRNRPPRLPRPRPRPQPEPRP | 0.0878 |
| RRIRCRPPRLPRPRPRPKNEPRP | -0.1 |
| RRIRPRPPRLPRPRPRPSDLPRP | -0.385 |
| RRIRHRPPRLPRPRPRPDCLPRP | -0.228 |
